Reference: paper PMC7822876, “Structural basis of ribosomal RNA transcription regulation” (Nature Communications, 2020)

B1: DksA (natural protein, E. coli)
chain: MQEGQNRKTSSLSILAIAGVEPYQEKPGEEYMNEAQLAHFRRILEAWRNQLRDEVDRTVTHMQDEAANFPDPVDRAAQEEEFSLELRNRDRERKLIKKIEKTLKKVEDEDFGYCESCGVEIGIRRLEARPTADLCIDCKTLAEIREKQMAG
notes: DksA used for cryo-EM, with ppGpp (2 mM) in the sample; also called global transcriptional regulator DksA
B2: DksA D137A (natural protein)
chain: MQEGQNRKTSSLSILAIAGVEPYQEKPGEEYMNEAQLAHFRRILEAWRNQLRDEVDRTVTHMQDEAANFPDPVDRAAQEEEFSLELRNRDRERKLIKKIEKTLKKVEDEDFGYCESCGVEIGIRRLEARPTADLCIACKTLAEIREKQMAG

Key:
[1] = target: β′D256A RNAP (core RNAP with β′ D256A and wild-type σ^70) (E. coli) (UniProt P0A7Z4)
[2] = target: ΔσAL RNAP (wild-type core RNAP with σ^70 lacking the acidic loop) (E. coli) (UniProt P0A7Z4)
[3] = target: wild-type RNAP (core RNAP with wild-type σ^70, for in vitro transcription) (E. coli) (UniProt P0A7Z4)
[4] = target: Δσ1.1-RNAP (wild-type core RNAP with σ^70 lacking region 1.1) (E. coli) (UniProt P0A7Z4)
RNA polymerase β subunit = target: T1, RNA polymerase β subunit (E. coli, UniProt P0A8V2 1-1342); assay: cryo-EM structure; RP-DksA/ppGpp: RNAP (20 μM) preincubated with DksA (100 μM) and ppGpp (2 mM) 5 min at 37 °C in 10 mM HEPES pH 8.0, 50 mM NaCl, 0.1 mM EDTA, 5 mM DTT, 5 mM MgCl2, then rrnBP1 DNA (40 μM) 5 min at 37 °C; 8 mM CHAPSO; two classes, RP1-DksA/ppGpp (3.62 Å) and RP2-DksA/ppGpp (3.58 Å); details: both partners purified
T1 construct: RNA polymerase β subunit, E. coli; As it stands in the holoenzyme m1; also called βlobe/Si1; βgate loop (βGL)

[5] = target: T2, RNA polymerase β' subunit (E. coli, UniProt P0A8T7 1-1407); assay: as above; details: both partners purified
T2 construct: RNA polymerase β' subunit, E. coli; As it stands in the holoenzyme m1; also called β’clamp; β’clamp-toe (β’CT)

Binder | K (d,app) of DksA from inhibition of in vitro transcription from rrnBP1 (DksA 10 nM to 10 μM), +ppGpp (100 μM) [1] | K (d,app) of DksA from inhibition of in vitro transcription from rrnBP1 (DksA 10 nM to 10 μM), −ppGpp [1] | K (d,app) of DksA from inhibition of in vitro transcription from rrnBP1 (DksA 10 nM to 10 μM), +ppGpp (100 μM) [2] | K (d,app) of DksA from inhibition of in vitro transcription from rrnBP1 (DksA 10 nM to 10 μM), −ppGpp [2] | K (d,app) of DksA from inhibition of in vitro transcription from rrnBP1 (DksA 10 nM to 10 μM), +ppGpp (100 μM) [3] | K (d,app) of DksA from inhibition of in vitro transcription from rrnBP1 (DksA 10 nM to 10 μM), −ppGpp [3] | K (d,app) of DksA from inhibition of in vitro transcription from rrnBP1 (DksA 10 nM to 10 μM), −ppGpp [4] | binding result (RNA polymerase β subunit) | binding result [5] | K (d,app) of DksA D137A from inhibition of in vitro transcription from rrnBP1 (DksA 10 nM to 10 μM), +ppGpp (100 μM) [3] | K (d,app) of DksA D137A from inhibition of in vitro transcription from rrnBP1 (DksA 10 nM to 10 μM), −ppGpp [3]
B1 | 1640 nM | 4.54 µM | 1150 nM | 3000 nM | 860 nM | 2200 nM | > 10 µM | binds | binds | – | –
B2 | – | – | – | – | – | – | – | – | – | 2440 nM | 3.9 µM
